Broadly, the Km is the substrate concentration at which the rate is half of its maximum. As a reminder, the Vmax is the rate approached at saturating substrate. One may read the kcat as the maximal rate divided by the concentration of active sites. What is called kcat/Km is the second-order rate constant that governs catalysis at low substrate concentration.

In one series the target is SALDan (Alteromonas naphthalenivorans, UniProt F5Z5S7). The experiment in a line: Kinetics assay of wild-type recombinant SALDan (NADH appearance at 340 nm). The class given is biochemical. The note with it: wild-type; for Ki: “—” means not observed, read-out: App Ki (substrate inhibition). Here is the method:
(§1) The activity of the purified proteins was determined using SAL as a substrate. A reaction volume of 500 μL was prepared in a microfuge tube containing purified SALDan (0.1 μM), SAL (100 μM), and NAD^+ (100 μM) dissolved in 50 mM HEPES (pH 7.5) containing 150 mM NaCl. The SALDan activity was monitored as the rate of appearance of NADH at 340 nm spectrophotometrically. The specific activity of the enzyme (units.mg^−1.min^−1) was expressed as the amount of enzyme required to produce 1 μM of NADH under the assay conditions. The influence of pH on the activity was determined using the protocol described above, with the exception of replacing the […] buffer with 50 mM sodium acetate (pH 3.0–5.0), 50 mM 2-(N-morpholino)ethanesulfonic acid (pH 5.0–7.5), 50 mM HEPES (pH 8.0–8.5), 50 mM glycine (pH 9.0–10.0), or 50 mM sodium phosphate (pH 11.0)[52]. All assays were performed at the optimal temperature. To determine the influence of temperature on the enzymatic activity, the reactions were performed at 15, 20, 25, 30, 35, 40, and 45 °C, respectively.
(§2) For kinetic studies of aldehydes, the initial velocities of the enzymatic reactions were examined by varying the concentrations of various aromatic as well as aliphatic aldehydes in the presence of NAD^+ (100 μM) and the enzyme (0.1 μM) under optimal conditions. For substrates that absorb at 340 nm, thus interfering with the calculation of the initial rate, their molar coefficients (ε) were calculated as described previously[64] and are presented in Table S1. The apparent kinetic parameters were calculated using the equation: […]
(§3) The apparent kinetic parameters for NAD^+ were determined at a fixed concentration of SAL (50 μM) and a varying concentration of NAD^+ (0–500 μM). The apparent Km and Vmax values were calculated by using the equation: […]
(§4) All the activity data were determined by three separate experiments with at least three technical replicates.

Substrate in series [1]: NC(=O)c1ccc[n+]([C@@H]2O[C@H](COP(=O)([O-])OP(=O)(O)OC[C@H]3O[C@@H](n4cnc5c(N)ncnc54)[C@H](O)[C@@H]3O)[C@@H](O)[C@H]2O)c1
Nature of the series: Kinetics assay of SALDan mutant E175A. The format is biochemical, Alteromonas naphthalenivorans. As to conditions: other: E175A mutant; SAL varied at NAD^+ 100 μM; NAD^+ varied at SAL 50 μM.
Source text: (§5) The primers used for the single amino acid mutant were as follows: N149A, forward primer, 5′-ATAGCACCGTGGGCCGGGCCTATTGTATTA-3′; reverse primer, 5′-TAATACAATAGGCCCGGCCCACGGTGCTAT-3′; V153A, forward primer, 5′-AATGGGCCTATTGTATTAGCGGCTCGG-3′; reverse primer, 5′-CCGAGCCGCTAATACAATAGGCCCATT-3′; E175A, forward primer, 5′-[…]-3′, reverse primer, 5′-GTTGGGACAGTCTTCCAGCCC-3′; E175A, forward primer, 5′-ATGCTCCACCAAATTGGGCAC-3′; reverse primer, 5′-TTTAGGACTTACTTCTGAAGCTTTAAA-3′. The PCR was performed using Pfu polymerase, and the cycling parameters were: 95 °C for 5 min (one cycle), 95 °C for 30 s, and 68 °C for 12 min (12 cycles). After amplification, the PCR mixture was digested with DpnI and then transformed into E. coli BL21(DE3) by electroporation. The mutants were confirmed by DNA sequencing.
as §1, §2, §3, §4

Substrate in series [2]: O=Cc1ccccc1O
Nature of the series: Kinetics assay of SALDan mutant E175A. The class given is biochemical, Alteromonas naphthalenivorans. The note with it: other: E175A mutant; SAL varied at NAD^+ 100 μM; NAD^+ varied at SAL 50 μM.
Source text: as §5, §1, §2, §3, §4

Substrate in series [3]: NC(=O)c1ccc[n+]([C@@H]2O[C@H](COP(=O)([O-])OP(=O)(O)OC[C@H]3O[C@@H](n4cnc5c(N)ncnc54)[C@H](O)[C@@H]3O)[C@@H](O)[C@H]2O)c1
The experiment in a line: Kinetics assay of SALDan mutant V153A. The class given is biochemical, Alteromonas naphthalenivorans. As to conditions: other: V153A mutant; SAL varied at NAD^+ 100 μM; NAD^+ varied at SAL 50 μM.
Source text: as §5, §1, §2, §3, §4

Substrate in series [4]: O=Cc1ccccc1O
Nature of the series: Kinetics assay of SALDan mutant V153A. The class given is biochemical, Alteromonas naphthalenivorans. The note with it: other: V153A mutant; SAL varied at NAD^+ 100 μM; NAD^+ varied at SAL 50 μM.
Source text: as §5, §1, §2, §3, §4

Substrate in series [5]: NC(=O)c1ccc[n+]([C@@H]2O[C@H](COP(=O)([O-])OP(=O)(O)OC[C@H]3O[C@@H](n4cnc5c(N)ncnc54)[C@H](O)[C@@H]3O)[C@@H](O)[C@H]2O)c1
The experiment in a line: Kinetics assay of SALDan mutant N149A. The format is biochemical, Alteromonas naphthalenivorans. The note with it: other: N149A mutant; SAL varied at NAD^+ 100 μM; NAD^+ varied at SAL 50 μM.
Source text: as §5, §1, §2, §3, §4

Substrate in series [6]: O=Cc1ccccc1O
Nature of the series: Kinetics assay of SALDan mutant N149A. The class given is biochemical, Alteromonas naphthalenivorans. As to conditions: other: N149A mutant; SAL varied at NAD^+ 100 μM; NAD^+ varied at SAL 50 μM.
Source text: as §5, §1, §2, §3, §4

Setting [7] is: aldehyde varied at NAD^+ 100 μM, enzyme 0.1 μM, for NAD^+: SAL fixed 50 μM.

SALDan, sequence (F5Z5S7 entry or part of it): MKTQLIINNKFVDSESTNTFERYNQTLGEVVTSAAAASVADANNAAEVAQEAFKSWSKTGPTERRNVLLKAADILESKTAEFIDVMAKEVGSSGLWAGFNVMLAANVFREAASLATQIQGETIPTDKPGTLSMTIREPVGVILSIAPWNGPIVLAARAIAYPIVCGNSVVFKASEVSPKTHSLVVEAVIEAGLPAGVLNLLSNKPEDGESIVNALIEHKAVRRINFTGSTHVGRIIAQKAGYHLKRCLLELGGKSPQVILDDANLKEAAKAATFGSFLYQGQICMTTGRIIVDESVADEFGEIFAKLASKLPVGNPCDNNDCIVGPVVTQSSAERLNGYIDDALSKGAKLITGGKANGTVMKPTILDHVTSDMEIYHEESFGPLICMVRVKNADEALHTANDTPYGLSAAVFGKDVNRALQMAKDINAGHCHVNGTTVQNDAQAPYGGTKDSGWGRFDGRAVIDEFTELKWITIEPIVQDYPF

`C=O` [Formaldehyde]: at SALDan (setting [7]), the “App Vmax” value is reported as 3.3 ± 0.7 U/mg and the App kcat was determined as 8.6 ± 2.2 s⁻¹. Moreover, at SALDan (aldehyde varied at NAD^+ 100 μM, enzyme 0.1 μM, for NAD^+: SAL fixed 50 μM, NAD^+ 0–500 μM, read-out: App Km), the Km turned out to be 12400 ± 1820 µM.
Turning to `O=Cc1ccc(Cl)cc1` [4-Chlorobenzaldehyde], the Ki on SALDan was found to be 132 ± 18.9 µM.
In the case of `O=Cc1ccc([N+](=O)[O-])cc1` [4-Nitrobenzaldehyde], the Ki at SALDan is 266 ± 35.8 µM.

B1: SALDan E175A (Alteromonas naphthalenivorans; E175A) (protein)
chain: MKTQLIINNKFVDSESTNTFERYNQTLGEVVTSAAAASVADANNAAEVAQEAFKSWSKTGPTERRNVLLKAADILESKTAEFIDVMAKEVGSSGLWAGFNVMLAANVFREAASLATQIQGETIPTDKPGTLSMTIREPVGVILSIAPWNGPIVLAARAIAYPIVCGNSVVFKASAVSPKTHSLVVEAVIEAGLPAGVLNLLSNKPEDGESIVNALIEHKAVRRINFTGSTHVGRIIAQKAGYHLKRCLLELGGKSPQVILDDANLKEAAKAATFGSFLYQGQICMTTGRIIVDESVADEFGEIFAKLASKLPVGNPCDNNDCIVGPVVTQSSAERLNGYIDDALSKGAKLITGGKANGTVMKPTILDHVTSDMEIYHEESFGPLICMVRVKNADEALHTANDTPYGLSAAVFGKDVNRALQMAKDINAGHCHVNGTTVQNDAQAPYGGTKDSGWGRFDGRAVIDEFTELKWITIEPIVQDYPF
For the molecule B1, in series [1], the Km was found to be 105.6 ± 10.3 µM, the Vmax is 60.6 µmol/min/mg, the kcat came out at 158 ± 17.2 s⁻¹ and the kcat/Km is 1.5e+06 ± 400000 M⁻¹ s⁻¹. Further, in series [2], the Km was 15.1 ± 2.6 µM, the Vmax was determined as 32.3 µmol/min/mg, the kcat turned out to be 82.2 ± 10.1 s⁻¹ and the specificity constant (kcat/Km) is 5.4e+06 ± 900000 M⁻¹ s⁻¹.

B2: SALDan V153A (Alteromonas naphthalenivorans; V153A) (protein)
chain: MKTQLIINNKFVDSESTNTFERYNQTLGEVVTSAAAASVADANNAAEVAQEAFKSWSKTGPTERRNVLLKAADILESKTAEFIDVMAKEVGSSGLWAGFNVMLAANVFREAASLATQIQGETIPTDKPGTLSMTIREPVGVILSIAPWNGPIALAARAIAYPIVCGNSVVFKASEVSPKTHSLVVEAVIEAGLPAGVLNLLSNKPEDGESIVNALIEHKAVRRINFTGSTHVGRIIAQKAGYHLKRCLLELGGKSPQVILDDANLKEAAKAATFGSFLYQGQICMTTGRIIVDESVADEFGEIFAKLASKLPVGNPCDNNDCIVGPVVTQSSAERLNGYIDDALSKGAKLITGGKANGTVMKPTILDHVTSDMEIYHEESFGPLICMVRVKNADEALHTANDTPYGLSAAVFGKDVNRALQMAKDINAGHCHVNGTTVQNDAQAPYGGTKDSGWGRFDGRAVIDEFTELKWITIEPIVQDYPF
With B2, in series [3], the Km stood at 44.9 ± 4.2 µM, the Vmax came out at 103 µmol/min/mg, the kcat was 254 ± 21.5 s⁻¹ and the kcat/Km came out at 5.7e+06 ± 500000 M⁻¹ s⁻¹. Also, in series [4], the Km came out at 4.6 ± 0.7 µM, the Vmax was found to be 59.5 µmol/min/mg, the kcat came out at 154 ± 20.4 s⁻¹ and the catalytic efficiency (kcat/Km) is 3.34e+07 ± 4.7e+06 M⁻¹ s⁻¹.

B3: SALDan N149A (Alteromonas naphthalenivorans; N149A) (protein)
chain: MKTQLIINNKFVDSESTNTFERYNQTLGEVVTSAAAASVADANNAAEVAQEAFKSWSKTGPTERRNVLLKAADILESKTAEFIDVMAKEVGSSGLWAGFNVMLAANVFREAASLATQIQGETIPTDKPGTLSMTIREPVGVILSIAPWAGPIVLAARAIAYPIVCGNSVVFKASEVSPKTHSLVVEAVIEAGLPAGVLNLLSNKPEDGESIVNALIEHKAVRRINFTGSTHVGRIIAQKAGYHLKRCLLELGGKSPQVILDDANLKEAAKAATFGSFLYQGQICMTTGRIIVDESVADEFGEIFAKLASKLPVGNPCDNNDCIVGPVVTQSSAERLNGYIDDALSKGAKLITGGKANGTVMKPTILDHVTSDMEIYHEESFGPLICMVRVKNADEALHTANDTPYGLSAAVFGKDVNRALQMAKDINAGHCHVNGTTVQNDAQAPYGGTKDSGWGRFDGRAVIDEFTELKWITIEPIVQDYPF
As for B3, in series [5], the Km stood at 52.3 ± 6.1 µM, the maximum rate (Vmax) is 83.5 µmol/min/mg, the kcat amounted to 209 ± 25.6 s⁻¹ and the kcat/Km was found to be 4e+06 ± 800000 M⁻¹ s⁻¹. Moreover, in series [6], the Km was 9.5 ± 1.3 µM, the Vmax amounted to 38.6 µmol/min/mg, the kcat came out at 100 ± 16.8 s⁻¹ and the kcat/Km worked out at 1.06e+07 ± 1.3e+06 M⁻¹ s⁻¹.

For the origin of these results see article PMC5324060, “Evolutionary, computational, and biochemical studies of the salicylaldehyde dehydrogenases in the naphthalene degradation pathway” (Scientific Reports, 2017).
